{"source": "paper PMC11503491", "about": "(ACS Central Science, 2024)", "binders": {"B1": {"name": "S2X259 IgG (antibody, V domains shown)", "VH": "QVQLVQSGAEVKKPGSSVKVSCKASGGIFNTYTISWVRQAPGQGLEWMGRIILMSGMANYAQKIQGRVTITADKSTSTAYMELTSLRSDDTAVYYCARGFNGNYYGWGDDDAFDIWGQGTLVTVYS", "VL": "QTVLTQPPSVSGAPGQRVTISCTGSNSNIGAGYDVHWYQQLPGTAPKLLICGNSNRPSGVPDRFSGSKSGTSASLAITGLQAEDEADYYCQSYDSSLSGPNWVFGGGTKLTVL", "notes": "also called class 4 mAb"}, "B2": {"name": "fragment antigen-binding region (Fab) of S2X259 (Fab, V domains shown)", "VH": "B1 VH", "VL": "B1 VL", "notes": "also called S2X259 Fab"}, "B3": {"name": "C022 (antibody, V domains shown)", "VH": "QVQLQESGPGLVKPSETLSVTCTVSGGSISSSRYYWGWIRQPPGKGLEWIGSIYYSGSTYYNPSLKSRVTISVDTSKNQFSLKLSSVTAADTAVYYCARHAAAYYDRSGYYFIEYFQHWGQGTLVTVSS", "VL": "DIQMTQSPSTLSASVGDSVTITCRASQSISSWLAWYQQKPGKAPKLLIYKASSLESGVPSRFSGSGSGTEFTLTISSLQPDDFATYYCQQYNNYRYTFGQGTKLEIK", "notes": "also called S2X259-like class 4 antibody"}, "B4": {"name": "COVA2-15 (antibody, V domains shown)", "VH": "QVQLLESGGGLVQPGGSLRLSCAASGFTFSSYAMSWVRQAPGKGLEWASAISGSGGSTYYADSVEGRFTISRDNSKNTLYLQMNSLRAEDTAVYYCAKDTGYCGDDCYIKLIRGGPDYWGQGTLVTVSS", "VL": "DIVMTQSPLSLPVTLGQPASISCRSSQSLVYSDGNTFLNWFQQRPGQSPRRLIYQVSNRDSGVPDRFSGSGSGTDFTLKISRVEAEDVGVYYCMQGTHWPRTFGQGTKLEIK", "notes": "also called class 2 antibody"}, "B5": {"name": "1-16 (antibody, V domains shown)", "VH": "QVQLVQSGAEVKKPGASVKVSCKASGYTFTSYYMHWVRQAPGQGLEWMGIINSSGGSTSYAQKFQGRVTMTRDTSTSTVYMELSSLRSEDTAVYYCARPPRNYYDRSGYYQRAEYFQHWGQGTLVTVSS", "VL": "DIQLTQSPSSLSASVGDRVTITCQASQDISNYLNWYQQRPGKAPKLLIYDASNLETGVPSRFSGSGSGTDFTFTISSLQPEDIATYYCQQYDNPPLTFGGGTKLEIK", "notes": "as for B3"}, "B6": {"name": "C002 (antibody, V domains shown)", "VH": "EVQLVESGGGVVQPGRSLRLSCAASGFTFSIYGMHWVRQAPGKGLEWVAVISYDGSNKYYADSVKGRFTISRDNSKNTLYLQMNSLRAEDTAVYYCAKEGRPSDIVVVVAFDYWGQGTLVTVSS", "VL": "not shown"}, "B7": {"name": "CR3022 (class 4 RBD-directed antibody) (antibody, V domains shown)", "VH": "QMQLVQSGTEVKKPGESLKISCKGSGYGFITYWIGWVRQMPGKGLEWMGIIYPGDSETRYSPSFQGQVTISADKSINTAYLQWSSLKASDTAIYYCAGGSGISTPMDVWGQGTTVTVSS", "VL": "not shown", "notes": "IgG"}, "B8": {"name": "CR3022 (antibody, V domains shown)", "VH": "B7 VH", "VL": "not shown", "notes": "also called class 4 antibody"}, "B9": {"name": "CB6 (class 1 RBD-directed antibody) (antibody, V domains shown)", "VH": "EVQLVESGGGLVQPGGSLRLSCAASGFTVSSNYMSWVRQAPGKGLEWVSVIYSGGSTFYADSVKGRFTISRDNSMNTLFLQMNSLRAEDTAVYYCARVLPMYGDYLDYWGQGTLVTVSS", "VL": "not shown"}, "B10": {"name": "CB6 (antibody, V domains shown)", "VH": "B9 VH", "VL": "not shown"}, "B11": {"name": "SA55 (antibody, V domains shown)", "VH": "QVQLVQSGAEVKKPGSSVKVSCKASGGTFRSHVISWVRQAPGQGLEWMGGFIPLFGTTIYAQAFQGRVMISADESTSTAYMELSSLRSEDTAVYFCARLFPNGDPNSPEDGFDIWGQGTLVTVSS", "VL": "DIQMTQSPSSLSASVGDRVTITCQASQDIGNYLNWYQQKPGKAPKLLIYDASHLETGVPSRFSGSGSGTDFTFTISSLQPEDIATYYCQRYDDLPSYTFGQGTKVEIK", "notes": "as for B3"}}, "key": {"[1]": {"target": "wild-type SARS-CoV-2 Wuhan Hu-1 receptor-binding domain (residues 319-533) (SARS-CoV-2 Wuhan-Hu-1)", "experiment": "BLI", "conditions": "both partners purified"}, "[2]": {"target": "SARS-CoV-2 RBD (RWT), wild-type Wuhan Hu-1 receptor-binding domain, residues 319-533 (SARS-CoV-2 Wuhan Hu-1)", "experiment": "BLI", "conditions": "both partners purified"}}, "data": [{"binder": "B1", "values": [{"measurement": "koff", "setting": "[1]", "result": 0.0011, "unit": "s⁻¹"}]}, {"binder": "B2", "values": [{"measurement": "Kd", "setting": "[1]", "result": "0.97 ± 0.5", "unit": "nM"}]}, {"binder": "B3", "values": [{"measurement": "binding result", "setting": "[1]", "result": "binds"}]}, {"binder": "B4", "values": [{"measurement": "binding result", "setting": "[1]", "result": "binds"}]}, {"binder": "B5", "values": [{"measurement": "binding result", "setting": "[1]", "result": "binds"}]}, {"binder": "B6", "values": [{"measurement": "binding result", "setting": "[1]", "result": "binds"}]}, {"binder": "B7", "values": [{"measurement": "koff", "setting": "[2]", "result": 0.016, "unit": "s⁻¹"}]}, {"binder": "B8", "values": [{"measurement": "binding result", "setting": "[1]", "result": "binds"}]}, {"binder": "B9", "values": [{"measurement": "koff", "setting": "[2]", "result": 0.013, "unit": "s⁻¹"}]}, {"binder": "B10", "values": [{"measurement": "binding result", "setting": "[1]", "result": "binds"}]}, {"binder": "B11", "values": [{"measurement": "binding result", "setting": "[1]", "result": "binds"}]}]}
